# In patent US20200223889A1 (Novo Nordisk, published 2020):
# Positions of bridges follow the written chain, without caps; N, C: chain ends. Non-standard residues stand in square brackets, D forms with d. Cit = NC(=O)NCCC[C@H](N)C(=O)O; Api = NC1(C(=O)O)CCNCC1
# B1: Chem. 52 (peptide)
# peptide: cyclo(CKH[dF]HWCKH[dF]HW)
# modifications: disulfide 1-7
# SMILES: NCCCC[C@@H]1NC(=O)[C@@H]2CSSC[C@H](NC(=O)[C@H](Cc3c[nH]c4ccccc34)NC(=O)[C@H](Cc3c[nH]cn3)NC(=O)[C@@H](Cc3ccccc3)NC(=O)[C@H](Cc3c[nH]cn3)NC1=O)C(=O)N[C@@H](CCCCN)C(=O)N[C@@H](Cc1c[nH]cn1)C(=O)N[C@H](Cc1ccccc1)C(=O)N[C@@H](Cc1c[nH]cn1)C(=O)N[C@@H](Cc1c[nH]c3ccccc13)C(=O)N2
# notes: also called c[c[Cys-Lys-His-D-Phe-His-Trp-Cys]-Lys-His-D-Phe-His-Trp]
# B2: Chem. 1 (peptide)
# peptide: cyclo(CH[dF]RWECH[dF]RWE)
# modifications: disulfide 1-7
# SMILES: N=C(N)NCCC[C@@H]1NC(=O)[C@@H](Cc2ccccc2)NC(=O)[C@H](Cc2c[nH]cn2)NC(=O)[C@@H]2CSSC[C@H](NC(=O)[C@H](CCC(=O)O)NC(=O)[C@H](Cc3c[nH]c4ccccc34)NC1=O)C(=O)N[C@@H](Cc1c[nH]cn1)C(=O)N[C@H](Cc1ccccc1)C(=O)N[C@@H](CCCNC(=N)N)C(=O)N[C@@H](Cc1c[nH]c3ccccc13)C(=O)N[C@@H](CCC(=O)O)C(=O)N2
# notes: also called c[c[Cys-His-D-Phe-Arg-Trp-Glu-Cys]-His-D-Phe-Arg-Trp-Glu]
# B3: Chem. 62 (peptide)
# peptide: cyclo(CPH[dF]HWCAKKKW)
# modifications: disulfide 1-7
# notes: also called c[c[Cys-Pro-His-D-Phe-His-Trp-Cys]-Ala-Lys-Lys-Lys-Trp]
# B4: Chem. 60 (peptide)
# peptide: cyclo(CAH[dF]HWCAKKKW)
# modifications: disulfide 1-7
# SMILES: C[C@@H]1NC(=O)[C@@H]2CSSC[C@H](NC(=O)[C@H](Cc3c[nH]c4ccccc34)NC(=O)[C@H](Cc3c[nH]cn3)NC(=O)[C@@H](Cc3ccccc3)NC(=O)[C@H](Cc3c[nH]cn3)NC1=O)C(=O)N[C@@H](C)C(=O)N[C@@H](CCCCN)C(=O)N[C@@H](CCCCN)C(=O)N[C@@H](CCCCN)C(=O)N[C@@H](Cc1c[nH]c3ccccc13)C(=O)N2
# notes: also called c[c[Cys-Ala-His-D-Phe-His-Trp-Cys]-Ala-Lys-Lys-Lys-Trp]
# B5: Chem. 57 (peptide)
# peptide: cyclo(CAH[dF]QWCAK[dK]KW)
# modifications: disulfide 1-7
# SMILES: C[C@@H]1NC(=O)[C@@H]2CSSC[C@H](NC(=O)[C@H](Cc3c[nH]c4ccccc34)NC(=O)[C@H](CCC(N)=O)NC(=O)[C@@H](Cc3ccccc3)NC(=O)[C@H](Cc3c[nH]cn3)NC1=O)C(=O)N[C@@H](C)C(=O)N[C@@H](CCCCN)C(=O)N[C@H](CCCCN)C(=O)N[C@@H](CCCCN)C(=O)N[C@@H](Cc1c[nH]c3ccccc13)C(=O)N2
# notes: also called c[c[Cys-Ala-His-D-Phe-Gln-Trp-Cys]-Ala-Lys-D-Lys-Lys-Trp]
# B6: Chem. 71 (peptide)
# peptide: cyclo(CPH[dF]HWCAKKKR)
# modifications: disulfide 1-7
# SMILES: C[C@@H]1NC(=O)[C@@H]2CSSC[C@H](NC(=O)[C@H](CCCNC(=N)N)NC(=O)[C@H](CCCCN)NC(=O)[C@H](CCCCN)NC(=O)[C@H](CCCCN)NC1=O)C(=O)N1CCC[C@H]1C(=O)N[C@@H](Cc1c[nH]cn1)C(=O)N[C@H](Cc1ccccc1)C(=O)N[C@@H](Cc1c[nH]cn1)C(=O)N[C@@H](Cc1c[nH]c3ccccc13)C(=O)N2
# notes: also called c[c[Cys-Pro-His-D-Phe-His-Trp-Cys]-Ala-Lys-Lys-Lys-Arg]
# B7: Chem. 53 (peptide)
# peptide: cyclo(CEH[dF]HWCEH[dF]HW)
# modifications: disulfide 1-7
# SMILES: O=C(O)CC[C@@H]1NC(=O)[C@@H]2CSSC[C@H](NC(=O)[C@H](Cc3c[nH]c4ccccc34)NC(=O)[C@H](Cc3c[nH]cn3)NC(=O)[C@@H](Cc3ccccc3)NC(=O)[C@H](Cc3c[nH]cn3)NC1=O)C(=O)N[C@@H](CCC(=O)O)C(=O)N[C@@H](Cc1c[nH]cn1)C(=O)N[C@H](Cc1ccccc1)C(=O)N[C@@H](Cc1c[nH]cn1)C(=O)N[C@@H](Cc1c[nH]c3ccccc13)C(=O)N2
# notes: also called c[c[Cys-Glu-His-D-Phe-His-Trp-Cys]-Glu-His-D-Phe-His-Trp]
# B8: Chem. 51 (peptide)
# peptide: cyclo(CEH[dF]RWCEH[dF]RW)
# modifications: disulfide 1-7
# SMILES: N=C(N)NCCC[C@@H]1NC(=O)[C@@H](Cc2ccccc2)NC(=O)[C@H](Cc2c[nH]cn2)NC(=O)[C@H](CCC(=O)O)NC(=O)[C@@H]2CSSC[C@H](NC(=O)[C@H](Cc3c[nH]c4ccccc34)NC1=O)C(=O)N[C@@H](CCC(=O)O)C(=O)N[C@@H](Cc1c[nH]cn1)C(=O)N[C@H](Cc1ccccc1)C(=O)N[C@@H](CCCNC(=N)N)C(=O)N[C@@H](Cc1c[nH]c3ccccc13)C(=O)N2
# notes: also called c[c[Cys-Glu-His-D-Phe-Arg-Trp-Cys]-Glu-His-D-Phe-Arg-Trp]
# B9: Chem. 5 (peptide)
# peptide: cyclo(CH[dF]RWACH[dF]RWA)
# modifications: disulfide 1-7
# SMILES: C[C@@H]1NC(=O)[C@H](Cc2c[nH]c3ccccc23)NC(=O)[C@H](CCCNC(=N)N)NC(=O)[C@@H](Cc2ccccc2)NC(=O)[C@H](Cc2c[nH]cn2)NC(=O)[C@@H]2CSSC[C@H](NC1=O)C(=O)N[C@@H](Cc1c[nH]cn1)C(=O)N[C@H](Cc1ccccc1)C(=O)N[C@@H](CCCNC(=N)N)C(=O)N[C@@H](Cc1c[nH]c3ccccc13)C(=O)N[C@@H](C)C(=O)N2
# notes: also called c[c[Cys-His-D-Phe-Arg-Trp-Ala-Cys]-His-D-Phe-Arg-Trp-Ala]
# B10: Chem. 55 (peptide)
# peptide: cyclo(CKH[dF][Cit]WCKH[dF][Cit]W)
# modifications: disulfide 1-7
# SMILES: NCCCC[C@@H]1NC(=O)[C@@H]2CSSC[C@H](NC(=O)[C@H](Cc3c[nH]c4ccccc34)NC(=O)[C@H](CCCNC(N)=O)NC(=O)[C@@H](Cc3ccccc3)NC(=O)[C@H](Cc3c[nH]cn3)NC1=O)C(=O)N[C@@H](CCCCN)C(=O)N[C@@H](Cc1c[nH]cn1)C(=O)N[C@H](Cc1ccccc1)C(=O)N[C@@H](CCCNC(N)=O)C(=O)N[C@@H](Cc1c[nH]c3ccccc13)C(=O)N2
# notes: also called c[c[Cys-Lys-His-D-Phe-Cit-Trp-Cys]-Lys-His-D-Phe-Cit-Trp]
# B11: Chem. 50 (peptide)
# peptide: cyclo(C[Api]H[dF]HWC[Api]H[dF]HW)
# modifications: disulfide 1-7
# SMILES: O=C1N[C@H]2CSSC[C@H](NC(=O)[C@H](Cc3c[nH]c4ccccc34)NC(=O)[C@H](Cc3c[nH]cn3)NC(=O)[C@@H](Cc3ccccc3)NC(=O)[C@H](Cc3c[nH]cn3)NC(=O)C3(CCNCC3)NC2=O)C(=O)NC2(CCNCC2)C(=O)N[C@@H](Cc2c[nH]cn2)C(=O)N[C@H](Cc2ccccc2)C(=O)N[C@@H](Cc2c[nH]cn2)C(=O)N[C@H]1Cc1c[nH]c2ccccc12
# notes: also called c[c[Cys-ACP-His-D-Phe-His-Trp-Cys]-ACP-His-D-Phe-His-Trp]
# B12: Chem. 54 (peptide)
# peptide: cyclo(CRH[dF][Cit]WCRH[dF][Cit]W)
# modifications: disulfide 1-7
# SMILES: N=C(N)NCCC[C@@H]1NC(=O)[C@@H]2CSSC[C@H](NC(=O)[C@H](Cc3c[nH]c4ccccc34)NC(=O)[C@H](CCCNC(N)=O)NC(=O)[C@@H](Cc3ccccc3)NC(=O)[C@H](Cc3c[nH]cn3)NC1=O)C(=O)N[C@@H](CCCNC(=N)N)C(=O)N[C@@H](Cc1c[nH]cn1)C(=O)N[C@H](Cc1ccccc1)C(=O)N[C@@H](CCCNC(N)=O)C(=O)N[C@@H](Cc1c[nH]c3ccccc13)C(=O)N2
# notes: also called c[c[Cys-Arg-His-D-Phe-Cit-Trp-Cys]-Arg-His-D-Phe-Cit-Trp]
# Biological target: T1, human melanocortin 4 receptor (human, UniProt P32245 1-332)
# T1 sequence (P32245 whole entry): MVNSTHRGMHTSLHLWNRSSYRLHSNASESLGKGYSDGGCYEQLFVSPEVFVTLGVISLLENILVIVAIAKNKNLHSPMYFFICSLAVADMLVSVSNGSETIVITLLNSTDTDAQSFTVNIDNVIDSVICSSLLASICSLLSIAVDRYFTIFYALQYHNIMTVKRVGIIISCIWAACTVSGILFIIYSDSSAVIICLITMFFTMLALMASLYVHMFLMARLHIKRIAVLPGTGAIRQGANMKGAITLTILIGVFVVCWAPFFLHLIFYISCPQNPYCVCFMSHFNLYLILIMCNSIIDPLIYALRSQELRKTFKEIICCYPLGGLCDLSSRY
# Assay: cell-based or functional assay
row,Binder,MC4R cAMP EC50 [nM]
1,B1,0.23
2,B2,14.9
3,B3,0.17
4,B4,0.17
5,B5,0.19
6,B6,0.08
7,B7,11
8,B8,0.2
9,B9,0.21
10,B10,0.1
11,B11,1.17
12,B12,0.04

# Biological target: human melanocortin 1 receptor (human, UniProt Q01726 1-317)
# Sequence (Q01726 whole entry): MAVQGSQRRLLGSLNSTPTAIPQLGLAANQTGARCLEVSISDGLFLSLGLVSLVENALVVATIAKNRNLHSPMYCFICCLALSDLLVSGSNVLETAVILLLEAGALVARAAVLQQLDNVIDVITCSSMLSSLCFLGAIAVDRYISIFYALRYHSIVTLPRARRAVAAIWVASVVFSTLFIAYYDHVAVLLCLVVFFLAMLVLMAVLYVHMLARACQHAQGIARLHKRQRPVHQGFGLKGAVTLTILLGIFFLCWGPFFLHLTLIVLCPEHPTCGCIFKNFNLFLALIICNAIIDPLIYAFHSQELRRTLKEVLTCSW
# Assay: cell-based or functional assay
row,Binder,MC1R cAMP EC50 [nM]
1,B1,47.7
2,B2,198
3,B3,> 1
4,B4,53.3
5,B5,10.4
6,B6,33.2
7,B7,> 10
8,B8,2.69
9,B9,6.47
10,B10,4.14
11,B11,66.2
12,B12,0.29

# Biological target: T1, human melanocortin 4 receptor
# Assay: competition with 125-NDP-α-MSH, BHK human MC4R membranes
# Procedure: In order to assess the binding affinity of the selected compounds for the human MC4R competitive binding assays was performed with radiolabeled NDP-alpha MSH (¹²⁵NDP-α-MSH).
# The assay was performed in 96-well filterplates (Unifilter) using BHK cells stably expressing the human MC4 receptor.
# The BHK cell membranes were prepared from frozen or fresh cells that were homogenized in 20 mM HEPES pH 7.1, 5 mM MgCl₂, 1 mg/ml bacitracin (buffer 1) and centrifuged at 15000 rpm at 4° C., 10 min in a Sorvall RC 5B plus, SS-34 rotor. The supernatant was discarded, and the pellets were re-suspended in buffer 1, homogenized and centrifuged two more times. The final pellets were re-suspended in buffer 1 and the protein concentration was measured and adjusted with buffer 1 to 5 mg/ml and the membrane preparation was kept at −80° C. until assay. The assay was run on a dilution of this cell membrane suspension without any further preparation. The suspension was diluted to give maximally 10% specific binding, i.e. to approx. 50-100 fold dilution, optimized after each membrane preparation. The assay was performed in a total volume of 200 μl: 50 μl of cell suspension, 50 μl of ¹²⁵NDP-α-MSH (apx. […] in final concentration), 50 μl of test compound and 50 μl binding buffer were mixed and incubated for 2 h at 25° C. (binding buffer: 25 mM HEPES, pH 7.0, 1 mM CaCl₂), 1 mM MgSO₄, 1 mM EGTA, 0.005% Tween™ 20 and 0.1% HSA or, alternatively, 0.1% ovalbumin (Sigma; catalogue No. A-5503)). Test compounds were dissolved in 100% DMSO and diluted in binding buffer in a dose range from 1 μM to 0.001 nM. Radiolabelled ligand and membranes were diluted in binding buffer. The incubation was stopped by dilution with 8×100 μl ice-cold 0.9% NaCl. The radioactivity retained on the filters was counted using a Packard Topcounter. The data were analysed by non-linear regression analysis of binding curves, using the Windows™ program GraphPad™ Prism (GraphPad Software, USA).
row,Binder,Ki [nM]
1,B1,0.76
2,B2,47.9
3,B3,0.13
4,B4,0.1
5,B5,0.21
6,B6,0.05
7,B7,9.47
8,B8,0.5
9,B9,0.99
10,B10,0.33
11,B11,19.9
12,B12,0.21
